From patent publication US20110052677A1 (RESEARCH DEVELOPMENT FOUNDATION, published 2011)

Target: T1, native SRPX2 of tEnd1.V^high mouse angiogenic endothelioma cells (mouse, UniProt Q8R054 26-468)
T1 construct: Endogenous protein from a mouse endothelioma cell line; also called native SPRXb 2; Sushi repeat-containing protein, X-linked, 2
T1 sequence (looked up): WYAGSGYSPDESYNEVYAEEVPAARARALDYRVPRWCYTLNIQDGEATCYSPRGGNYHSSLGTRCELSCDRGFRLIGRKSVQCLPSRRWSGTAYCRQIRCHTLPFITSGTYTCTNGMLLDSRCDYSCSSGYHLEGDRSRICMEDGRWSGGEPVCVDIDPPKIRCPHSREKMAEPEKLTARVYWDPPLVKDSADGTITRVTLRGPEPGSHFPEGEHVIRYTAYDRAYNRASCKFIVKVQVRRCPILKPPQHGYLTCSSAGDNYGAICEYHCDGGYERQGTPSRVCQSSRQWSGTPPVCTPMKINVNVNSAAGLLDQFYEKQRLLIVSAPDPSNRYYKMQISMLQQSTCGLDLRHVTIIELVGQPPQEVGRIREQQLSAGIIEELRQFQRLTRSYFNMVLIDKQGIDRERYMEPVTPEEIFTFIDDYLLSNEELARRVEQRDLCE
Experiment: anti-uPAR immunoprecipitate from tEnd1.V^high lysate, blot re-probed with rabbit anti-SRPX2 antibody
Experimental: Pull down assay of SRPX2 by uPAR—The tEnd1.V^high cells were cell surface biotinylated (0.5 mg/ml of biotin in DPBS) for 15 min, blocked with 10% FCS in PBS and lysed in lysis buffer with addition of 0.5% CHAPS and proteinase inhibitors (Sigma). Pre-clearing was preformed subsequently with the protein G beads (40 μl beads/1 ml lysate) (Protein G Sepharose 4 fast flow, General Electrics) for 3×5 min at RT. Immuno-precipitation was performed by adding sheep anti-uPAR antibodies, precipitated with protein G beads and eluted with a lysis buffer. Immunoblots were preformed with sheep anti-uPAR antibodies and detected by anti-sheep HRP labeled antibodies and visualized by ECL.

binding result: binds
B1: vascular urokinase-type plasminogen activator receptor (uPAR) of tEnd1.V^high cells (receptor, mouse, UniProt P35456 24-298, looked up)
chain: LQCMQCESNQSCLVEECALGQDLCRTTVLREWQDDRELEVVTRGCAHSEKTNRTMSYRMGSMIISLTETVCATNLCNRPRPGARGRAFPQGRYLECASCTSLDQSCERGREQSLQCRYPTEHCIEVVTLQSTERSLKDEDYTRGCGSLPGCPGTAGFHSNQTFHFLKCCNYTHCNGGPVLDLQSFPPNGFQCYSCEGNNTLGCSSEEASLINCRGPMNQCLVATGLDVLGNRSYTVRGCATASWCQGSHVADSFPTHLNVSVSCCHGSGCNSPTG
notes: whole, on cells; Native GPI-linked receptor, immunoprecipitated from cell lysate after cell-surface biotinylation; Species is inferred from the mouse cell line; also called vascular uPAR; native uPAR
